From patent US20190076400A1 (PROTAGONIST THERAPEUTICS, published 2019)
Square brackets hold non-standard residues; d marks the D form. Phe(2,6-Me2,4-CONH2) = Cc1cc(C(N)=O)cc(C)c1C[C@H](N)C(=O)O; Phe(3,4-(OMe)2) = COc1ccc(C[C@H](N)C(=O)O)cc1OC; Phe(3,4-Cl2) = N[C@@H](Cc1ccc(Cl)c(Cl)c1)C(=O)O; Trp(5-OH) = N[C@@H](Cc1c[nH]c2ccc(O)cc12)C(=O)O; Phe(4-COOH) = N[C@@H](Cc1ccc(C(=O)O)cc1)C(=O)O; Phe(4-tBu) = CC(C)(C)c1ccc(C[C@H](N)C(=O)O)cc1; Dip = N[C@H](C(=O)O)C(c1ccccc1)c1ccccc1; Phe(4-F) = N[C@@H](Cc1ccc(F)cc1)C(=O)O; Dmt = Cc1cc(O)cc(C)c1C[C@H](N)C(=O)O; NMeR = CN[C@@H](CCCNC(=N)N)C(=O)O; dNMeF = CN[C@H](Cc1ccccc1)C(=O)O; hPhe = N[C@@H](CCc1ccccc1)C(=O)O; αMeF = C[C@](N)(Cc1ccccc1)C(=O)O; Tic = O=C(O)[C@@H]1Cc2ccccc2CN1; β3hF = N[C@H](CC(=O)O)Cc1ccccc1; N(octyl)Gly = CCCCCCCCNCC(=O)O; Nle = CCCC[C@H](N)C(=O)O; THP = not defined here; Aib = CC(C)(N)C(=O)O; βAla = NCCC(=O)O; Sar = CNCC(=O)O

target: δ-opioid receptor (DOR), Human-ORPD1 (human, UniProt P41143 1-372); experiment: cell-based or functional assay
Sequence (P41143 whole entry, stated change not applied): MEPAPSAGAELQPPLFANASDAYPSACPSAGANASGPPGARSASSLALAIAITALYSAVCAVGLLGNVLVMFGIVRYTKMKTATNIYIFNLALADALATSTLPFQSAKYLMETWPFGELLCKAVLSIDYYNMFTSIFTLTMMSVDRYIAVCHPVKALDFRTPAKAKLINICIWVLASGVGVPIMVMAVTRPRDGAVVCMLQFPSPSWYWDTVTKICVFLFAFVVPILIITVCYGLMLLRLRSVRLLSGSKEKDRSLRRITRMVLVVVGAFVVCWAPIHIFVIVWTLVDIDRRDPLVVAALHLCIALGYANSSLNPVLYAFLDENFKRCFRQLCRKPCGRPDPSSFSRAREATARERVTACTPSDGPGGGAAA

Row | Binder | DOR EC50 [nM]
1 | H-[Dmt][dR]FL-NH2 (SMILES Cc1cc(O)cc(C)c1C[C@H](N)C(=O)N[C@H](CCCNC(=N)N)C(=O)N[C@@H](Cc1ccccc1)C(=O)N[C@@H](CC(C)C)C(N)=O) [H-DMT-r-F-L-NH2] | ≤ 50
2 | H-[Dmt][dR][Dip][Sar]-NH2 (SMILES Cc1cc(O)cc(C)c1C[C@H](N)C(=O)N[C@H](CCCNC(=N)N)C(=O)N[C@H](C(=O)N(C)CC(N)=O)C(c1ccccc1)c1ccccc1) [H-DMT-r-DPA-Sar-NH2 (Seq. ID 26)] | > 200
3 | H-[Dmt][dR][Sar]W-NH2 (SMILES Cc1cc(O)cc(C)c1C[C@H](N)C(=O)N[C@H](CCCNC(=N)N)C(=O)N(C)CC(=O)N[C@@H](Cc1c[nH]c2ccccc12)C(N)=O) [H-DMT-r-Sar-W-NH2] | > 200
4 | H-[Dmt][dR]F[Nle]-NH2 (SMILES CCCC[C@H](NC(=O)[C@H](Cc1ccccc1)NC(=O)[C@@H](CCCNC(=N)N)NC(=O)[C@@H](N)Cc1c(C)cc(O)cc1C)C(N)=O) [H-DMT-r-F-Nle-NH2] | ≤ 50
5 | H-[Dmt][dR]F[Dip]-NH2 (SMILES Cc1cc(O)cc(C)c1C[C@H](N)C(=O)N[C@H](CCCNC(=N)N)C(=O)N[C@@H](Cc1ccccc1)C(=O)N[C@H](C(N)=O)C(c1ccccc1)c1ccccc1) [H-DMT-r-F-DPA-NH2] | ≤ 50
6 | H-[Phe(2,6-Me2,4-CONH2)]AG[β3hF][Sar]-OH [H-Phe(DMC)-A-G-bhF-Sar-OH] | ≤ 200
7 | H-[Dmt][dR][Phe(3,4-Cl2)][Sar]-NH2 (SMILES Cc1cc(O)cc(C)c1C[C@H](N)C(=O)N[C@H](CCCNC(=N)N)C(=O)N[C@@H](Cc1ccc(Cl)c(Cl)c1)C(=O)N(C)CC(N)=O) [H-DMT-r-Phe(3,4-diCl)-Sar-NH2] | ≤ 50
8 | H-[Dmt][dA]V[β3hF][Sar]-NH2 (SMILES Cc1cc(O)cc(C)c1C[C@H](N)C(=O)N[C@H](C)C(=O)N[C@H](C(=O)N[C@H](CC(=O)N(C)CC(N)=O)Cc1ccccc1)C(C)C) [H-DMT-a-Val-bhF-Sar-NH2] | ≤ 200
9 | H-[Phe(2,6-Me2,4-CONH2)][dD]G[β3hF][Sar]-NH2 (SMILES Cc1cc(C(N)=O)cc(C)c1C[C@H](N)C(=O)N[C@H](CC(=O)O)C(=O)NCC(=O)N[C@H](CC(=O)N(C)CC(N)=O)Cc1ccccc1) [H-Phe(DMC)-(D)Asp-G-bhF-Sar-NH2] | ≤ 1
10 | H-[Phe(2,6-Me2,4-CONH2)][Aib]G[β3hF][Sar]-NH2 (SMILES Cc1cc(C(N)=O)cc(C)c1C[C@H](N)C(=O)NC(C)(C)C(=O)NCC(=O)N[C@H](CC(=O)N(C)CC(N)=O)Cc1ccccc1) [H-Phe(DMC)-Aib-G-bhF-Sar-NH2] | ≤ 50
11 | H-[Trp(5-OH)][dA]G[β3hF][Sar]-NH2 [H-Trp(5-OH)-a-G-bhF-Sar-NH2] | ≤ 200
12 | H-[Dmt][dR][BIP][Sar]-NH2 [H-DMT-r-BIP-Sar-NH2] | ≤ 1
13 | H-[Dmt][dR]F[Phe(3,4-(OMe)2)]-NH2 (SMILES COc1ccc(C[C@H](NC(=O)[C@H](Cc2ccccc2)NC(=O)[C@@H](CCCNC(=N)N)NC(=O)[C@@H](N)Cc2c(C)cc(O)cc2C)C(N)=O)cc1OC) [H-DMT-r-F-Phe(3,4-diOMe)-NH2] | ≤ 10
14 | H-[Phe(3-OH)][dA]G[β3hF][Sar]-NH2 [H-meta-Tyr-a-G-bhF-Sar-NH2] | > 200
15 | H-[Dmt][dR]W[Nle]-NH2 (SMILES CCCC[C@H](NC(=O)[C@H](Cc1c[nH]c2ccccc12)NC(=O)[C@@H](CCCNC(=N)N)NC(=O)[C@@H](N)Cc1c(C)cc(O)cc1C)C(N)=O) [H-DMT-r-W-Nle-NH2] | ≤ 50
16 | H-[Dmt][dR]FV-NH2 (SMILES Cc1cc(O)cc(C)c1C[C@H](N)C(=O)N[C@H](CCCNC(=N)N)C(=O)N[C@@H](Cc1ccccc1)C(=O)N[C@H](C(N)=O)C(C)C) [H-DMT-r-F-V-NH2] | ≤ 10
17 | H-[Phe(2,6-Me2,4-CONH2)][dA]G[β3hF]G-NH2 (SMILES Cc1cc(C(N)=O)cc(C)c1C[C@H](N)C(=O)N[C@H](C)C(=O)NCC(=O)N[C@H](CC(=O)NCC(N)=O)Cc1ccccc1) [H-Phe(DMC)-a-G-bhF-Gly-NH2] | ≤ 10
18 | H-[Dmt][dR]F[dNMeF]-NH2 (SMILES Cc1cc(O)cc(C)c1C[C@H](N)C(=O)N[C@H](CCCNC(=N)N)C(=O)N[C@@H](Cc1ccccc1)C(=O)N(C)[C@H](Cc1ccccc1)C(N)=O) [H-DMT-r-F-(D)N(Me)Phe-NH2] | ≤ 50

Row | Binder | DOR EC50 [nM]
19 | H-[Phe(2,6-Me2,4-CONH2)][dA]G[Tic][Sar]-NH2 [H-Phe(DMC)-a-G-Tic-Sar-NH2] | ≤ 50
20 | H-[Phe(2,6-Me2,4-CONH2)][NMeR]G[β3hF][Sar]-NH2 (SMILES Cc1cc(C(N)=O)cc(C)c1C[C@H](N)C(=O)N(C)[C@@H](CCCNC(=N)N)C(=O)NCC(=O)N[C@H](CC(=O)N(C)CC(N)=O)Cc1ccccc1) [H-Phe(DMC)-N(Me)Arg-G-bhF-Sar-NH2] | ≤ 200
21 | H-[Dmt][dA][βAla][β3hF][Sar]-NH2 [H-DMT-a-bAla-bhF-Sar-NH2] | ≤ 200
22 | H-[Dmt][dR][Tic][Sar]-NH2 (SMILES Cc1cc(O)cc(C)c1C[C@H](N)C(=O)N[C@H](CCCNC(=N)N)C(=O)N1Cc2ccccc2C[C@H]1C(=O)N(C)CC(N)=O) [H-DMT-r-Tic-Sar-NH2] | > 200
23 | H-[Phe(4-NHCOCH3)][dA]G[β3hF][Sar]-NH2 [H-Phe(4-NHCOCH3)-a-G-bhF-Sar-NH2] | ≤ 200
24 | H-[Dmt][dR][Dip][Sar]-NH2 (SMILES Cc1cc(O)cc(C)c1C[C@H](N)C(=O)N[C@H](CCCNC(=N)N)C(=O)N[C@H](C(=O)N(C)CC(N)=O)C(c1ccccc1)c1ccccc1) [H-DMT-r-DPA-Sar-NH2 (Seq. ID 32)] | > 200
25 | H-[Dmt][dR]F[N(octyl)Gly]-NH2 (SMILES CCCCCCCCN(CC(N)=O)C(=O)[C@H](Cc1ccccc1)NC(=O)[C@@H](CCCNC(=N)N)NC(=O)[C@@H](N)Cc1c(C)cc(O)cc1C) [H-DMT-r-F-Octyl Gly-NH2] | ≤ 200
26 | H-[Dmt][dA][THP][β3hF][Sar]-NH2 (reading uncertain; also: printed as H-DMT-a-THP-bhF-Sar-NH2) [H-DMT-a-THP-bhF-Sar-NH2] | ≤ 200
27 | H-[Dmt][dR][Phe(4-tBu)][Sar]-NH2 (SMILES Cc1cc(O)cc(C)c1C[C@H](N)C(=O)N[C@H](CCCNC(=N)N)C(=O)N[C@@H](Cc1ccc(C(C)(C)C)cc1)C(=O)N(C)CC(N)=O) [H-DMT-r-4-tBu-Phe-Sar-NH2] | > 200
28 | H-[Dmt][dR][Phe(3,4-(OMe)2)][Sar]-NH2 (SMILES COc1ccc(C[C@H](NC(=O)[C@@H](CCCNC(=N)N)NC(=O)[C@@H](N)Cc2c(C)cc(O)cc2C)C(=O)N(C)CC(N)=O)cc1OC) [H-DMT-r-Phe(3,4-diOMe)-Sar-NH2] | > 200
29 | H-[Dmt][dR]F[hPhe]-NH2 (SMILES Cc1cc(O)cc(C)c1C[C@H](N)C(=O)N[C@H](CCCNC(=N)N)C(=O)N[C@@H](Cc1ccccc1)C(=O)N[C@@H](CCc1ccccc1)C(N)=O) [H-DMT-r-F-HomoPhe-NH2] | ≤ 10
30 | H-[Dmt][dR]F[αMeF]-NH2 (SMILES Cc1cc(O)cc(C)c1C[C@H](N)C(=O)N[C@H](CCCNC(=N)N)C(=O)N[C@@H](Cc1ccccc1)C(=O)N[C@@](C)(Cc1ccccc1)C(N)=O) [H-DMT-r-F-alpha-MePhe-NH2] | ≤ 10
31 | H-[Dmt][dR]GW-NH2 (SMILES Cc1cc(O)cc(C)c1C[C@H](N)C(=O)N[C@H](CCCNC(=N)N)C(=O)NCC(=O)N[C@@H](Cc1c[nH]c2ccccc12)C(N)=O) [H-DMT-r-G-W-NH2] | ≤ 50
32 | H-[Phe(4-COOH)][dA]G[β3hF][Sar]-NH2 [H-Phe(4-COOH)-a-G-bhF-Sar-NH2] | ≤ 200
33 | H-[Phe(4-tetrazolyl)][dA]G[β3hF][Sar]-NH2 [H-Phe(4-tetrazolyl)-a-G-bhF-Sar-NH2] | ≤ 200
34 | H-[Dmt][dR]F[Phe(4-F)]-NH2 [H-DMT-r-F-Phe(4-F)-NH2] | ≤ 50
35 | H-[Dmt][NMeR]G[β3hF][Sar]-NH2 (SMILES Cc1cc(O)cc(C)c1C[C@H](N)C(=O)N(C)[C@@H](CCCNC(=N)N)C(=O)NCC(=O)N[C@H](CC(=O)N(C)CC(N)=O)Cc1ccccc1) [H-DMT-N(Me)Arg-G-bhF-Sar-NH2] | ≤ 200
36 | H-[Dmt][dR]G[Dip]-NH2 (SMILES Cc1cc(O)cc(C)c1C[C@H](N)C(=O)N[C@H](CCCNC(=N)N)C(=O)NCC(=O)N[C@H](C(N)=O)C(c1ccccc1)c1ccccc1) [H-DMT-r-G-DPA-NH2] | > 200
